Test [1] concerns the target MKK4-JNK3 module (Homo sapiens, UniProt P45985+P53779). Kind of test: In vitro phosphorylation of JNK3α2 by MKK4 (reconstituted module). In kind it is biochemical. The protocol:
(§1) Next, it was tested whether T1A acts as a scaffold facilitating signaling. To this end, experiments used purified proteins, because they provide the most definitive data supporting a direct interaction. As purified ASK1 is not available, MKK4-JNK3 and MKK7-JNK3 modules were reconstituted in the absence and presence of varying concentrations of synthetic purified T1A peptide and measured JNK3 phosphorylation (FIG. 2A). […] This dependence, where signaling is increased at lower scaffold concentrations and decreased at higher, was also found for scaffolding of these modules by full-length arrestin-3^20. It is believed to be a characteristic of simple scaffolds, which act by bringing the enzyme and substrate together, as lower scaffold concentrations make the formation of complete scaffold-enzyme-substrate ternary complexes likely, whereas higher concentrations increase the probability of formation of incomplete enzyme-scaffold and substrate-scaffold binary complexes, suppressing the signaling^25,26. The optimal concentration of a scaffolding protein for signaling depends on its affinity for the proteins it scaffolds^20,25,26.
JNK3α2^20,23, and MKK4 and MKK7^17,20 were expressed in E. coli and purified as previously described^40. The effect of arrestin-3 and MBP-T1A on the phosphorylation of JNK3α2 by MKK7 or MKK4 was analyzed by an in vitro kinase assay, as described^19,20. Briefly, the assays were conducted in 10 μL containing the following final concentrations: 50 nM active MKK7 or MKK4, 1 μM JNK3α2, and indicated concentrations of arrestin-3 or T1A. The mixtures were incubated individually at 30° C. for 10 sec. The reactions were stopped by the addition of 15 μL of Laemmli SDS sample buffer (Sigma) and 2 μl of total reaction sample was subjected to SDS-PAGE (8%) and transferred polyvinylidene difluoride (PVDF) membranes (Millipore, Bedford, Mass.). Phosphorylated JNK3α2 was visualized by rabbit anti-phospho JNK antibody (Cell Signaling) and the level of JNK phosphorylation was quantified.

Test [2] has as its target MKK7-JNK3 module (Homo sapiens, UniProt O14733+P53779). Briefly: In vitro phosphorylation of JNK3α2 by MKK7 (reconstituted module). In kind it is biochemical. The protocol:
as §1, with “The optimal concentration of a scaffolding protein for signaling depends on its affinity for the proteins it scaffolds^20,25,26.” left out
JNK3α2^20,23, and MKK4 and MKK7^17,20 were expressed in E. coli and purified as previously described^40. The effect of arrestin-3 and MBP-T1A on the phosphorylation of JNK3α2 by MKK7 or MKK4 was analyzed by an in vitro kinase assay, as described^19,20. […] Phosphorylated JNK3α2 was visualized by rabbit anti-phospho JNK antibody (Cell Signaling) and the level of JNK phosphorylation was quantified.

Test [3] deals with MKK4-JNK3 module. Briefly: JNK3 phosphorylation by co-expressed MKK4 in cells. Format: cell-based, African green monkey. The conditions noted are these: YFP-T1A co-expressed with MKK4 in COS7 cells. The protocol:
(§2) To test whether T1A can promote JNK3 phosphorylation by MKKs in cells, MKK4 or MKK7 was co-expressed with YFP-T1A in COS7 cells, using YFP and full-length arrestin-3 as negative and positive controls, respectively (FIG. 2C).
(§3) COS-7 African green monkey cells were maintained in DMEM supplemented with 10% heat-inactivated FBS (Invitrogen), penicillin, and streptomycin at 37° C. in a humidified incubator with 5% CO2. The cells were plated at 80-90% confluence and transfected using Lipofectamine 2000 (Invitrogen) according to the manufacturer's instructions. Cells were used 48 h post-transfection and serum-starved overnight before experiments.
(§4) COS-7 cells were incubated with phosphatase inhibitors (50 mM NaF and 10 mM Na3VO4) in serum-free medium for 15 min at 37° C.; washed with cold PBS; and lysed with SDS lysis buffer containing 1% SDS, 10 mM Tris (pH7.4), 10 mM NaF, 100 μM Na3VO4, 2 mM EDTA, 2 mM benzamidine and 1 mM PMSF. JNKs activity was assayed by Western blotting using an antibody specific for phosphorylated JNK to detect phosphorylated (active) JNKs^17,20,23. […] Protein was measured using the Bio-Rad Coomassie Blue assay. […] Protein bands were detected by enhanced chemiluminescence (ECL, Pierce), followed by exposure to x-ray film. To quantify phospho-JNKs, serial dilutions of anisomycin (1 μg/ml)-stimulated HEK-A cell lysates were used to ensure that all samples were in linear range. […]

In test [4] the test system is MKK7-JNK3 module. Kind of test: JNK3 phosphorylation by co-expressed MKK7 in cells. In kind it is cell-based, African green monkey. To be noted: YFP-T1A co-expressed with MKK7 in COS7 cells. The protocol:
as §2, §3, §4

Chain of MKK4-JNK3 module (Homo sapiens, UniProt P45985+P53779) (P45985 whole entry): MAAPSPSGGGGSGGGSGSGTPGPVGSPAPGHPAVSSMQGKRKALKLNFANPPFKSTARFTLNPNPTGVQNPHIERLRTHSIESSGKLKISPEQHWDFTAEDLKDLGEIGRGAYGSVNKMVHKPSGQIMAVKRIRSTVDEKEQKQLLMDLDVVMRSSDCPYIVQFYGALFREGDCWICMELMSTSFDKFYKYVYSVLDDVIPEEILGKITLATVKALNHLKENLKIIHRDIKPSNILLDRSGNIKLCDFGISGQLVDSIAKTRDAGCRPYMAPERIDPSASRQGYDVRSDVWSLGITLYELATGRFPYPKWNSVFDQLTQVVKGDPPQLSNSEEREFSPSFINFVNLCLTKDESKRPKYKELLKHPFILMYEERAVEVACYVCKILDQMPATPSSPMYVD
Chain of MKK4-JNK3 module (Homo sapiens, UniProt P45985+P53779) (P53779 whole entry): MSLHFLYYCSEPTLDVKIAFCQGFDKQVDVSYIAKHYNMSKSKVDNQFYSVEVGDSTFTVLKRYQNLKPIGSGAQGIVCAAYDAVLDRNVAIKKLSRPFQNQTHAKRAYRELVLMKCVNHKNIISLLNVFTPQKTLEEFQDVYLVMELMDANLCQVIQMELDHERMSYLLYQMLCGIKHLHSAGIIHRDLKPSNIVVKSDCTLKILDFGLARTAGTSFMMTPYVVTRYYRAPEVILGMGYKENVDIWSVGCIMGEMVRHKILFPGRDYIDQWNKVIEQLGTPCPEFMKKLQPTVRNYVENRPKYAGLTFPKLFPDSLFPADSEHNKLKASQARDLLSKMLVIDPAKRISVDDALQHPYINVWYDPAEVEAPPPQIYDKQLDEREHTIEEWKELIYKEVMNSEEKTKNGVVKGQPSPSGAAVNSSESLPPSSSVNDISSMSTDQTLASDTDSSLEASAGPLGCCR
Chain of MKK7-JNK3 module (Homo sapiens, UniProt O14733+P53779) (O14733 whole entry): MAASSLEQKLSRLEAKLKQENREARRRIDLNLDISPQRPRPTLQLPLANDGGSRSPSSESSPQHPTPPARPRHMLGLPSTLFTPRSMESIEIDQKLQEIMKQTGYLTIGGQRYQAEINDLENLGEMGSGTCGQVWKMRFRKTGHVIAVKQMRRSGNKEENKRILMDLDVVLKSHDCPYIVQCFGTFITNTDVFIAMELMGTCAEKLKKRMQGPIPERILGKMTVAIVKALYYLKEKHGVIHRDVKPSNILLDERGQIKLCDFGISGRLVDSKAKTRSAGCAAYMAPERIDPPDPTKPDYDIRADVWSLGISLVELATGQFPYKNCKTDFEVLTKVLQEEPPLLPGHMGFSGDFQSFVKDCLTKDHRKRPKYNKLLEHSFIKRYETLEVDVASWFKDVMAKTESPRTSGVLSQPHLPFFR
Chain of MKK7-JNK3 module (Homo sapiens, UniProt O14733+P53779) (P53779 whole entry): as the sequence (P53779 whole entry) above

With “MGEKPGTRVFKKSSPNCKLTVYLGK (bovine) [T1A, first 25 residues of arrestin-3]”, in test [1], the “optimal concentration for promoting JNK3 phosphorylation by MKK4 compared with MKK7-JNK3 module” value is on record as “lower than for MKK7-JNK3 module” and the “optimal concentration relative to full-length arrestin-3, MKK4-JNK3 module” value is around 10 times lower. Also, the “JNK3 phosphorylation level by MKK4 as a function of T1A concentration” value in test [1] (50 nM MKK4, 1 μM JNK3α2, 10 sec, 30° C., synthetic purified peptide) is given as “bell-shaped curves”. The “optimal concentration relative to full-length arrestin-3, MKK7-JNK3 module” value in test [2] is given as around 10 times lower. In test [2] (50 nM MKK7, 1 μM JNK3α2, 10 sec, 30° C., synthetic purified peptide), the “JNK3 phosphorylation level by MKK7 as a function of T1A concentration” value is listed as “bell-shaped curves”. In test [3], the “JNK3 phosphorylation by MKK4 in cells” value is “necessary and sufficient to promote the signaling”. The “JNK3 phosphorylation by MKK7 in cells” value in test [4] was “necessary and sufficient to promote the signaling”.

The values are drawn from patent US10369187B2, “Peptide regulators of JNK family kinases” (Vanderbilt University, priority 2017, dated 2019).
